Assay results from PMC10749193 (Frontiers in Immunology, 2023).

Target: SARS-CoV-2 S2 subunit ectodomain (S2-ECD, 686–1213 aa) (SARS-CoV-2 Wuhan, UniProt P0DTC2)
Experiment: ELISA
Conditions: both partners purified

B1: anti-S2 monoclonal antibody 4A5 (antibody, V domains shown)
VH: QVKLEQSGPGILQPSQTLSLTCSFSGFSLSTSGMGVSWIRQSSGKGLEWLTHIYWDDDKRYNPSLKSRLTISKDTSRNQVFLKITSVDTADTATYYCARRRMITGLYYAMDYWGQGTSVTVSS
VL: DIVMTQSTLSLPVSFGDQVSISCRSSQSLANSYGITYLSWYLHKPGQSPQLLIYGISNRFSGVPDRFSGSGSGTDFTLKISTIKPEDLGMYYCLQGTHQPWTFGGGTKLEIK
  binding result: binds
